Laboratory results reported in patent US20100196361A1, “Method of inhibition of vascular development using an antibody” (DYAX CORP., priority 2003, published 2010).
“Also recorded” adds a separate entry of the source.

What was measured:
HUVEC = test: Tube formation by HUVEC in collagen gel; assay type: cell-based, human
Procedure: Human Umbilical vein endothelial cells (HUVEC) were obtained by treating fresh human umbilical cord veins with Trypsin-EDTA (1×) (Gibco/Invitrogen) for 20-25 minutes at 37° C. The cells were cultured in a T-25 flask coated with attachment factor (AF), (Cascade Biologics) in RPMI 1640 medium supplemented with 10% FCS, 0.4% BBE, 1% 1-glutamin, 1% penicillin/streptomycin. Primary cultures were detached with warm Trypsin-EDTA and used when confluent at the second or third passage. The cells were maintained in a proliferative state by culturing them in a split ratio 1:2 at an approximate density of the monolayer of about 60-80%. […]
After 2 passages HUVECs were seeded in their culture medium (40×10^3/50 μl/well of a 96-well plate) on a collagen gel (50 μl of collagen I 1.5 mg/ml) prepared by mixing 7.5 volumes of 2 mg/ml collagen (Collagen R; Serva, Heidelberg, Germany), 1 volume of 10× MEM, 1.5 volume of NaHCO3 (15.6 mg/ml) and ˜1 volume of NaOH to adjust the pH to 7.4. […] The assay was performed with a streptavidin antibody used as a control (from 1 ng/ml to 10 μg/ml): The total length of the tube network on the culture surface was quantified at 40× magnification by the METAVUE™ Software (Universal Imaging Corporation). Results from triplicate wells were expressed as mean vessel area per field ±SEM (relative units). […]

human platelets = test: Flow cytometry on human platelets; assay type: binding; conditions: total (CD42) and thrombin-activated (CD62) platelets
Procedure: To avoid platelet activation, human platelets were isolated from plasma of healthy donors using the platelet GelSep kit (Biocytex, Marseille, France) kit according to the guidelines of the manufacturer. Platelets were activated by the addition of thrombin to a final concentration of 0.8 U/ml. To distinguish activated from non-activated platelets double staining was performed with Tie1 antibodies/control antibodies and antibody CD42 (total platelets) or CD62 (activated platelets).
After preparation, platelets were resuspended in buffer 2 of the GelSep kit, 10% heat inactivated human serum (incubation buffer) and incubated for 1 hour. […] Platelets were spun down by centrifugation for 10 min at 611 g. Between incubations platelets were washed twice with Buffer 1 of the GelSep kit. Then, Strepatvidin-R-phycoerythrin together with anti-CD42-PercP or anti-CD62-PercP were incubated for 30 minutes at room temperature in incubation buffer After the last incubation and washing detection of bound antibodies was performed by means of flow cytometry on a FACSscan and Epics Altra (Becton Dickinson, Oxnard, Coulter,) and results analyzed. Cells were gated on SSC and anti-CD42-PercP for the total platelets in case non-activated platelets were used and on SSC and anti-CD62-PercP for the activated platelets. […]

B1: E3: human anti-Tie1 antibody from phage Fab library, reformatted as IgG; HC variable SEQ ID NO:114, LC variable SEQ ID NO:116 (antibody, V domains shown)
VH: EVQLLESGGGLVQPGGSLRLSCAASGFTFSMYGMVWVRQAPGKGLEWVSVISPSGGNTGYADSVKGRFTISRDNSKNTLYLQVNSLRAEDTAVYYCARAPRGYSYGYYYWGQGTLVTVSSASTKGPSVFPLAPSSKSTSGG
VL: DIQMTQSPLSLSASVGDRVTITCRASQGIGHYLAWYQQKPGKVPKLLIYTASTLQSGVPSRFSGSGSGTDFTLTINSLQPEDVATYYCQQFNSYPHTFGQGTRLDIK
modifications: IgG constant regions; Synthetically generated peptide
IC50, tube formation (HUVEC; HUVEC, collagen type-I matrix, 0.1 ng/ml to 100 ng/ml tested): less than 10 ng/ml | inhibition of tube formation by HUVECs (HUVEC; collagen type-I gel): potent inhibitor of tube formation by HUVECS even at a concentration of 10 ng/ml | binding to platelets (human platelets): Only a background number of CD42 positive cells are labeled; also recorded: no significant binding to total platelets, nor to activated platelets | binding to platelets (human platelets; listed as DX-2200): did not show significant binding to platelets
